Assay results: patent US20210060185A1

Target: T1, GvpA of Anabaena flos-aquae (primary shell protein of the gas vesicle) (Anabaena flos-aquae) (UniProt P10397)
T1 sequence: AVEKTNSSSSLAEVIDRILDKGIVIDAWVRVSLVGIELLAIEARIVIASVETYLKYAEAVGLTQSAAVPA
Assay: cell-based or functional assay

nonlinear ultrasound contrast of Nissle cells expressing ASGClpXP, with against without aTc induction of WT GvpC: 10 dB
B1: WT Ana GvpC (under pTet promoter) (protein)
chain: MISLMAKIRQEHQSIAEKVAELSLETREFLSVTTAKRQEQAEKQAQELQAFYKDLQETSQQFLSETAQARIAQAEKQAQELLAFHKELQETSQQFLSATAQARIAQAEKQAQELLAFYQEVRETSQQFLSATAQARIAQAEKQAQELLAFHKELQETSQQFLSATADARTAQAKEQKESLLKFRQDLFVSIFG
